Data: US5723299A, “Somatostatin receptors” (Arch Development Corporation, priority 1995, dated 1998)

Molecular target: T1, hGPR81 (SSTR1) (Homo sapiens, UniProt P30872)
T1 construct: in vitro transcribed RNA injected into Xenopus laevis oocytes
Assay: Ca^2+ efflux in oocytes injected with hGPR81 RNA
Assay type: cell-based
Conditions: laevis oocytes injected with in vitro transcribed RNA
Protocol: Since the presence of a short cytoplasmic loop connecting transmembrane segments M5-M6 is a feature of G protein-coupled receptors that bind peptide hormones and neuropeptides (E. M. Ross, 1990), peptides known to regulate hormone secretion from pancreatic islets were tested as ligands for hGPR81. Initial attempts to identify the ligand for hGPR81 by injecting RNA transcribed in vitro into fenopus laevis oocytes (Kayano et al., 1990) and assessing changes in basal or stimulated cAMP levels in response to […] [calcitonin-gene-related peptide, gastric inhibitory polypeptide, glucagon, glucagon-like peptide 1-(7-36 amide), and vasoactive intestinal peptide], or Ca^2+ efflux (Williams et al., 1988) (angiotensin II, bombesin, cholecystokinin, and vasopressin) were unsuccessful. The binding of radiolabeled peptides (galanin, glucagon and somatostatin) to COS-7 cells transiently expressing hGPR81 was attempted, as well.

T1 sequence (P30872 whole entry): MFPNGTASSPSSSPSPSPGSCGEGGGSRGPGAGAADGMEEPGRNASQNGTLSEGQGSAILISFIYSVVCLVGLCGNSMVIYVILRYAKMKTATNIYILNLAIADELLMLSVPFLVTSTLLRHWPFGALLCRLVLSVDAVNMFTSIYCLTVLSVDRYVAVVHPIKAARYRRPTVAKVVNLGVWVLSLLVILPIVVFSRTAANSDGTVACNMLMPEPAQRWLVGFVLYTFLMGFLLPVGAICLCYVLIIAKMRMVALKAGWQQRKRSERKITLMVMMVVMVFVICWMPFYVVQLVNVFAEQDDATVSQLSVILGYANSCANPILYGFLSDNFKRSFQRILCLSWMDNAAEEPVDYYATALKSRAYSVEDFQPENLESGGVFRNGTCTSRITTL

B1: cholecystokinin: peptide known to regulate hormone secretion from pancreatic islets (peptide, UniProt P06307 21-115, looked up)
Cholecystokinin: QPVPPADPAGSGLQRAEEAPRRQLRVSQRTDGESRAHLGALLARYIQQARKAPSGRMSIVKNLQNLDPSHRISDRDYMGWMDFGRRSAEEYEYPS
modifications: Cholecystokinin
notes: peptide known to regulate hormone secretion from pancreatic islets
identification as ligand for hGPR81 by Ca^2+ efflux: unsuccessful
